Measured values reported in publication doi:10.1101/2020.10.25.354548 (bioRxiv, 2020).

Target: SARS-CoV-2 spike protein receptor binding domain (RBD) (SARS-CoV-2, UniProt P0DTC2)
Assay: ELISA

B1: bovine ACE2-Fc (bovine angiotensin I converting enzyme 2 fused to human IgG1 Fc) (Fc fusion)
chain: QSTTEEQAKTFLEKFNHEAEDLSYQSSLASWNYNTNITDENVQKMNEARAKWSAFYEEQSRMAKTYSLEEIQNLTLKRQLKALQHSGTSALSAEKSKRLNTILNKMSTIYSTGKVLDPNTQECLALEPGLDDIMENSRDYNRRLWAWEGWRAEVGKQLRPLYEEYVVLENEMARANNYEDYGDYWRGDYEVTGAGDYDYSRDQLMKDVERTFAEIKPLYEQLHAYVRAKLMHTYPSYISPTGCLPAHLLGDMWGRFWTNLYSLTVPFEHKPSIDVTEKMENQSWDAERIFKEAEKFFVSISLPYMTQGFWDNSMLTEPGDGRKVVCHPTAWDLGKGDFRIKMCTKVTMDDFLTAHHEMGHIQYDMAYAAQPYLLRNGANEGFHEAVGEIMSLSAATPHYLKALGLLAPDFHEDNETEINFLLKQALTIVGTLPFTYMLEKWRWMVFKGEIPKQQWMEKWWEMKREIVGVVEPLPHDETYCDPACLFHVAEDYSFIRYYTRTIYQFQFHEALCKTAKHEGALFKCDISNSTEAGQRLLQMLRLGKSEPWTLALENIVGIKTMDVKPLLNYFEPLFTWLKEQNRNSFVGWSTEWTPYSDQSIKVRISLKSALGENAYEWNDNEMYLFQSSVAYAMRKYFSEARNETVLFGEDNVWVSDKKPRISFKFFVTSPNNVSDIIPRTEVENAIRLSRDRINDVFQLDDNSLEFLGIQPTLGPPYEPPVT
EC50: 1.3 nM
